# Tests used:
# Assay in all cases: cell-based or functional assay
# [1] = target: HIV-1 Env of pseudovirus MGRM-F1-010 (HIV-1)
# [2] = target: HIV-1 Env of isolate MGRM-Chronic-B-001, clade B, on pseudovirus (HIV-1)
# [3] = target: aMLV envelope protein on pseudovirus
# [4] = target: HIV-1 Env of pseudovirus MGRM-G-015 (HIV-1, clade G isolate MGRM-G-015)
# [5] = target: aMLV envelope protein on pseudovirus (negative control)
# [6] = target: HIV-1 Env of pseudovirus MGRM-F1-004 (HIV-1)
# [7] = target: HIV-1 Env of isolate MGRM-D-005 (clade D pseudovirus) (HIV-1)
# [8] = target: HIV-1 Env of isolate APV_6, clade B, on pseudovirus (HIV-1)
# [9] = target: HIV-1 Env of pseudovirus MGRM-F1-012 (HIV-1)
# [10] = target: HIV-1 Env of pseudovirus JRFL (HIV-1)
# [11] = target: HIV-1 Env of isolate MGRM-D-002 (clade D pseudovirus) (HIV-1)
# [12] = target: HIV-1 93UG077 envelope glycoprotein (Env) on pseudovirus (HIV-1)
# [13] = target: HIV-1 Env of isolate LAVI_C22 (HIV-1)
# [14] = target: HIV-1 Env of pseudovirus MGRM-AG-002 (clade CRF_AG) (HIV-1)
# [15] = target: HIV-1 Env of isolate MGRM-D-011 (clade D pseudovirus) (HIV-1)
# [16] = target: HIV-1 Env of pseudovirus MGRM-G-027 (HIV-1, clade G isolate MGRM-G-027)
# [17] = target: HIV-1 Env of pseudovirus MGRM-G-001 (clade G) (HIV-1)
# [18] = target: HIV-1 Env of pseudovirus MGRM-Chronic-B-024 (HIV-1)
# [19] = target: HIV-1 Env of isolate 93TH305, clade B, on pseudovirus (HIV-1)
# [20] = target: HIV-1 IAVI-C18 envelope glycoprotein (Env) on pseudovirus (HIV-1)
# [21] = target: HIV-1 93IN905 envelope glycoprotein (Env) on pseudovirus (HIV-1)
# [22] = target: HIV-1 envelope glycoprotein (Env) of isolate 93UG077, clade A (HIV-1)
# [23] = target: HIV-1 Env of isolate QH0692.42 (Acute), clade B, on pseudovirus (HIV-1)
# [24] = target: HIV-1 envelope glycoprotein (Env) of isolate 92RW008, clade A (HIV-1)
# [25] = target: HIV-1 Env of pseudovirus CMU02 (clade CRF01_AE) (HIV-1)
# [26] = target: HIV-1 envelope glycoprotein (Env) of isolate MGRM-C-025 (HIV-1)
# [27] = target: HIV-1 Env of isolate MGRM-AG-006 (subtype AG) (HIV-1)
# [28] = target: HIV-1 envelope glycoprotein (Env) of isolate MGRM-C-017 (HIV-1)
# [29] = target: HIV-1 Env of isolate MGRM-AE-003 (subtype AE) (HIV-1)
# [30] = target: HIV-1 Env of isolate 6535.3 (HIV-1)
# [31] = target: HIV-1 Env of isolate 93IN905 (subtype C) (HIV-1)
# [32] = target: HIV-1 Env of isolate 92UG114 (HIV-1)
# [33] = target: HIV-1 MGRM-AG-005 Env (pseudovirus) (HIV-1)
# [34] = target: HIV-1 Env of isolate MGRM-Chronic-B-017 (subtype B) (HIV-1)
# [35] = target: HIV-1 Env of isolate 92RW008 (HIV-1)
# [36] = target: HIV-1 envelope glycoprotein (Env) of isolate MGRM-C-015 (HIV-1)
# [37] = target: HIV-1 Env of isolate 98IN022 (subtype C) (HIV-1)
# [38] = target: HIV-1 APV6 Env (pseudovirus, clade B) (HIV-1)
# [39] = target: HIV-1 Env of isolate MG RM-D-020 (HIV-1)
# [40] = target: HIV-1 Env of isolate MG RM-D-022 (HIV-1)
# [41] = target: HIV-1 Env of isolate MGRM-AG-003 (subtype AG) (HIV-1)
# [42] = target: HIV-1 envelope glycoprotein (Env) of isolate MGRM-C-027 (HIV-1)
# Chain of 1443_C16 (PG16) (TCN-116) (antibody) (VH): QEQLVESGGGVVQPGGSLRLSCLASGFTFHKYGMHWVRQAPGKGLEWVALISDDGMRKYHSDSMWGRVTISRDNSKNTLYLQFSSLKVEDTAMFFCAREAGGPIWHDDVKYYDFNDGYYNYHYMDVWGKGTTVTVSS
# Chain of 1443_C16 (PG16) (TCN-116) (antibody) (VL): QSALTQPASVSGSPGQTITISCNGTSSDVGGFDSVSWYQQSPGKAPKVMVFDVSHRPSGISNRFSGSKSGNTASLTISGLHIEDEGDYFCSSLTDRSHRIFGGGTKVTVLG
Substance,"IC50 (µg/ml), pseudovirus neutralization [2] [µg/mL]","IC50, pseudovirus neutralization [3] [µg/mL]","IC50 (µg/ml), pseudovirus neutralization [4] [µg/mL]","IC50 (µg/ml), pseudovirus neutralization [6] [µg/mL]","IC50 (µg/ml), pseudovirus neutralization [7] [µg/mL]","IC50 (µg/ml), pseudovirus neutralization [8] [µg/mL]","IC50 (µg/ml), pseudovirus neutralization [9] [µg/mL]","IC50 (µg/ml), pseudovirus neutralization [10] [µg/mL]","IC50 (µg/ml), pseudovirus neutralization [11] [µg/mL]","IC50, pseudovirus neutralization [12] [µg/mL]",IC50 [13] [µg/mL],IC50 [14] [µg/mL],"IC50 (µg/ml), pseudovirus neutralization [15] [µg/mL]","IC50 (µg/ml), pseudovirus neutralization [16] [µg/mL]",IC50 [17] [µg/mL],"IC50 (µg/ml), pseudovirus neutralization [18] [µg/mL]","IC50 (µg/ml), pseudovirus neutralization [19] [µg/mL]","IC50, pseudovirus neutralization [20] [µg/mL]","IC50, pseudovirus neutralization [21] [µg/mL]","IC50 (µg/ml), pseudovirus neutralization [22] [µg/mL]",further results
2F5 (antibody),0.55,> 50,0.43,4.31,> 50,0.25,> 50,3.54,24.6,4.45,> 50,0.54,> 50,0.28,4.1,> 50,7.61,> 50,> 50,3.3,"IC50 (µg/ml), pseudovirus neutralization [1]: 14.6 µg/mL; IC90 (pseudovirus neutralization) [5]: > 50 µg/mL; IC50 (µg/ml), pseudovirus neutralization [23]: 5.42 µg/mL; IC50 (µg/ml), pseudovirus neutralization [24]: 10.4 µg/mL; IC50 [25]: 0.6 µg/mL"
2G12 (antibody),0.08,> 50,> 50,> 50,25.7,1.9,1.81,1.45,> 50,> 50,> 50,0.54,1.5,> 50,> 50,> 50,0.55,> 50,> 50,> 50,"IC90 (pseudovirus neutralization) [5]: > 50 µg/mL; IC50 (µg/ml), pseudovirus neutralization [23]: 4.39 µg/mL; IC50 (µg/ml), pseudovirus neutralization [24]: 22.5 µg/mL; IC50 [25]: > 50 µg/mL"
4E10 (antibody),1.46,> 50,1.07,2.74,35.2,1.1,0.37,18.9,9.44,11.2,2.02,0.8,0.91,1.19,2.04,9.19,12.3,> 50,1.55,10.6,"IC50 (µg/ml), pseudovirus neutralization [1]: 3.69 µg/mL; IC90 (pseudovirus neutralization) [5]: > 50 µg/mL; IC50 (µg/ml), pseudovirus neutralization [23]: 12.7 µg/mL; IC50 (µg/ml), pseudovirus neutralization [24]: 14.5 µg/mL; IC50 [25]: 0.72 µg/mL"
1443_C16 (PG16) (TCN-116) (antibody),> 50,> 50,5.33,0.43,19.7,0.29,0.003,> 50,0.01,> 50,0.02,0.03,0.01,0.01,0.15,0.01,19.3,0.0067,0.102,> 50,"IC50 (µg/ml), pseudovirus neutralization [1]: 0.01 µg/mL; IC90 (pseudovirus neutralization) [5]: > 50 µg/mL; IC50 (µg/ml), pseudovirus neutralization [23]: > 50 µg/mL; IC50 (µg/ml), pseudovirus neutralization [24]: 0.002 µg/mL; IC50 [25]: 43.6 µg/mL"
1495_C14 (PGC14) (antibody),> 50,> 50,> 50,> 50,> 50,23,> 50,> 50,29,> 50,25,> 50,> 50,> 50,> 50,> 50,6,> 50,> 50,> 50,"IC50 (µg/ml), pseudovirus neutralization [1]: > 50 µg/mL; IC50 (µg/ml), pseudovirus neutralization [23]: > 50 µg/mL; IC50 (µg/ml), pseudovirus neutralization [24]: 37 µg/mL; IC50 [25]: > 50 µg/mL"
5343_B08 (PGT-135) (antibody),,,,,,,,,,,,,,,,,,,,,"IC50 (µg/mL), pseudovirus neutralization [26]: > 50 µg/mL; IC50 (µg/mL), pseudovirus neutralization [27]: 17.9 µg/mL; IC50 (µg/mL), pseudovirus neutralization [28]: > 50 µg/mL; IC50 (µg/mL), pseudovirus neutralization [29]: > 50 µg/mL; neutralization IC50 [30]: > 50 µg/mL; IC50 neutralization [31]: 0.011 µg/mL; IC50 (µg/mL), pseudovirus neutralization [32]: 1.29 µg/mL; IC50 (neutralizing activity, pseudovirus) [33]: > 10 µg/mL; IC50 neutralization [34]: > 50 µg/mL; IC50 [35]: 1.42 µg/mL; IC50 (µg/mL), pseudovirus neutralization [36]: 0.104 µg/mL; IC50 neutralization [37]: 0.014 µg/mL; IC50 neutralization [38]: > 10 µg/mL; IC50 (µg/mL), pseudovirus neutralization [39]: > 50 µg/mL; IC50 (µg/mL), pseudovirus neutralization [40]: > 50 µg/mL; IC50 (µg/mL), pseudovirus neutralization [41]: > 50 µg/mL; IC50 (µg/mL), pseudovirus neutralization [42]: > 50 µg/mL"
b12 (antibody),0.75,> 50,> 50,> 50,> 50,> 50,> 50,0.02,> 50,41.1,7.64,0.89,7.75,> 50,> 50,> 50,4.17,> 50,34.1,47,"IC50 (µg/ml), pseudovirus neutralization [1]: > 50 µg/mL; IC90 (pseudovirus neutralization) [5]: > 50 µg/mL; IC50 (µg/ml), pseudovirus neutralization [23]: 0.73 µg/mL; IC50 (µg/ml), pseudovirus neutralization [24]: 9.46 µg/mL; IC50 [25]: 29.3 µg/mL"

# Source: patent US20250320281A1
